Measurements as given in patent US20260116991A1 (HAINAN SIMCERE ZAIMING PHARMACEUTICAL, published 2026).

Assays:
[1] = molecular target: T1, murine GPC3-his protein (Sino Biological, Cat. No. 50989-M08B) (murine, UniProt Q8CFZ4 25-558); experiment: ELISA, coated murine GPC3-His;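 also: antigen coated on plates at 1 µg/mL, test antibody bound for 2 h at 37 °C, detected with HRP-conjugated secondary antibody and TMB substrate after acid stop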
T1 construct: Bought protein; also called murine GPC3 protein

monkey GPC3-His protein = molecular target: T2, monkey GPC3-His protein (monkey); experiment: ELISA, monkey GPC3-His coated;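 also: Plate-coated antigen at 1 µg/mL, antibody binding 2 h at 37 °C, detected with HRP-labeled secondary antibody and TMB, absorbance at 450 nm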
T2 construct: Bought recombinant protein; also called monkey GPC3 protein

[2] = molecular target: biotinylated labeled human GPC3 protein (produced in-house) (human, UniProt P51654 25-559, limits assumed, biotinylated (Dojindo, Cat. No. LK03); sites not stated); experiment: ELISA, biotinylated human GPC3 protein

T1 sequence (Q8CFZ4 25-558 limits assumed): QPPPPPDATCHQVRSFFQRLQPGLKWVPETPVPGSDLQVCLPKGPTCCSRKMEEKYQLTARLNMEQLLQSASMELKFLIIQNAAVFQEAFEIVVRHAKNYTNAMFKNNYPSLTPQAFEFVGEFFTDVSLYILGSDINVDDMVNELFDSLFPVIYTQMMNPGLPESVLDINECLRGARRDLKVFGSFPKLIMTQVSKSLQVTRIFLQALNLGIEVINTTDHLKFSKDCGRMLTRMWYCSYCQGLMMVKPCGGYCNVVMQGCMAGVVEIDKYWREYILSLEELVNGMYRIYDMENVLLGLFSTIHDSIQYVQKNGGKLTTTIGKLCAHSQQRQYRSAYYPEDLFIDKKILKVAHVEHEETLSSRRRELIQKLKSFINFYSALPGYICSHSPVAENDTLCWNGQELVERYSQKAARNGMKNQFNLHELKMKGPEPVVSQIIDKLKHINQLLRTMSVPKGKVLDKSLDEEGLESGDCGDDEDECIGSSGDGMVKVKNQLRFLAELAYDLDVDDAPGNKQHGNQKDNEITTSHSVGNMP

Row | Binder | OD450 at 0.0001 nM antibody [1] | OD450 at 0.001 nM antibody [1] | OD450 at 0.01 nM antibody [1] | OD450 at 0.1 nM antibody [1] | OD450 at 1 nM antibody [1] | OD450 at 10 nM antibody [1] | OD450 at 100 nM antibody [1] | OD450 at 0.0008 nM [2] | OD450 at 0.004 nM [2] | OD450 at 0.02 nM [2] | OD450 at 0.11 nM [2] | OD450 at 0.53 nM [2] | OD450 at 2.67 nM [2] | OD450 at 13.33 nM [2] | OD450 at 66.66 nM [2] | also measured
1 | F1.2.14 human-murine chimeric antibody (antibody, human IgG1, kappa, V domains shown) VH: RVQLQQSGAELVKPGASVRMSCKASGYTFTAYSIEWMKQNLGKSLEWIGNFRPYNDDTKYNENFKGRATLTVEKSSATVYLELSRLTSDDSAVYYCARSGPTDYFDYWGQGTTLIVSS VL: DIQMTQSPASLSASVGETVTITCRASDNIYSYLAWYQQKQGQSPQLLVYNAKTLAEGVPSRFSGSGSVTQFSLKIISLQPEDFGTYYCQHHFGTPRTFGGGTKLEIKR | 0.05 OD450 nm | 0.05 OD450 nm | 0.06 OD450 nm | 0.14 OD450 nm | 0.46 OD450 nm | 1.2 OD450 nm | 1.24 OD450 nm |  |  |  |  |  |  |  |  | 
2 | F1.21.8 human-murine chimeric antibody (antibody, human IgG1, kappa, V domains shown) VH: EVQLQQSGPELVKPGASVKISCKTSGFLFTGHYMHWVKSSHGNILDWIGYIYPYNAISFYNQKFKGKATLTVDKSSNTAYMELRSLTSEDSAVYYCARGDYGNYVTAYWGQGTLVTVSA VL: DVLMTQTPLSLPVSLGDQASISCRSSQSIVHSSGNTYLEWYLQKPGQSPKLLIYKVSNRFSGVPDRFSGSGSGTDFTLKISRVEAEDLGVYYCFQGSHLPWTFGGGTKLDIKR | 0.05 OD450 nm | 0.07 OD450 nm | 0.17 OD450 nm | 0.76 OD450 nm | 1.12 OD450 nm | 1.41 OD450 nm | 1.84 OD450 nm |  |  |  |  |  |  |  |  | 
3 | F1.41.17 human-murine chimeric antibody (antibody, human IgG1, kappa, V domains shown) VH: EVQLVESGGDSVKPGGSLKLSCAASGFTFSSYGMSWVRQTPDKRLEWVATINSGGSYTYYQDSVKGRFTISRDNAKNTLYLQMSSLKSEDTAIYYCVRHHYGSSYDYFDYWGQGTTLTVSS VL: DIVMTQAAPSVPVMPGESVSISCRSSKSLLHSNGNTHLYWFLQRPGQSPQLLIYRMSNLASGVPDRFSGSGSGTAFTLRISRVEAEDVGVYYCMQHLEYPLTFGAGTKLELKR | 0.06 OD450 nm | 0.05 OD450 nm | 0.05 OD450 nm | 0.06 OD450 nm | 0.07 OD450 nm | 0.08 OD450 nm | 0.11 OD450 nm |  |  |  |  |  |  |  |  | 
4 | F1.42.8 human-murine chimeric antibody (antibody, human IgG1, kappa, V domains shown) VH: HVQLQQPGAELVKPGASVKLSCKASGYTFTSYWMHWVRQRPGQGLEWIEMIHPNSGSTNYNEKFKSKATLTVDKSSSTAYMQLSSLTSEDSAVYYCARGNYNSSLYAMDYWGQGTSVTVSS VL: DIQMTQTTSSLSASLGDRVTISCSASQGISNYLNWYQQKPDGTVKLLIYYASNLHSGVPSRFSGSGSGTAYSLTISNLEPEDIATYYCQQYSILPYTFGGGTKLEIKR | 0.05 OD450 nm | 0.09 OD450 nm | 0.37 OD450 nm | 1.7 OD450 nm | 2.51 OD450 nm | 2.6 OD450 nm | 2.75 OD450 nm |  |  |  |  |  |  |  |  | 
5 | F2.152.3 (antibody, human IgG1, kappa, V domains shown, Human-murine chimeric antibody) VH: EVQLQQSGPELVKPGASVKMSCKASGYTFTDYYMTWVKQSHGKSLEWIGRVNPRNGDTTYNQKFEGRATLTLDKSLSTAFMQLNSLTSEDSAVYYCINSKGHFDYWGQGTTLTVSS VL: DVLMTQTPLSLPVSLGDQASISCRSSQSIVHSNGNTYLEWFLQKPGQSPKSLIYKVSNRFSGVPDRFSGSGSGTDFTLKISRVEAEDLGVYYCFQGSHVPPTFGAGTKLELKR |  |  |  |  |  |  |  |  |  |  |  |  |  |  |  | OD450 at 0.0001 nM (monkey GPC3-His protein): 0.24 OD450; OD450 at 0.001 nM (monkey GPC3-His protein): 0.31 OD450; OD450 at 0.01 nM (monkey GPC3-His protein): 0.69 OD450; OD450 at 0.1 nM (monkey GPC3-His protein): 1.92 OD450; OD450 at 1 nM (monkey GPC3-His protein): 2.52 OD450; OD450 at 10 nM (monkey GPC3-His protein): 2.31 OD450; OD450 at 100 nM (monkey GPC3-His protein): 2.41 OD450

Second part, led by results:

Row | OD450 at 0.0001 nM antibody [1] | OD450 at 0.001 nM antibody [1] | OD450 at 0.01 nM antibody [1] | OD450 at 0.1 nM antibody [1] | OD450 at 1 nM antibody [1] | OD450 at 10 nM antibody [1] | OD450 at 100 nM antibody [1] | OD450 at 0.0008 nM [2] | OD450 at 0.004 nM [2] | OD450 at 0.02 nM [2] | OD450 at 0.11 nM [2] | OD450 at 0.53 nM [2] | OD450 at 2.67 nM [2] | OD450 at 13.33 nM [2] | OD450 at 66.66 nM [2] | Binder | also measured
6 |  |  |  |  |  |  |  | 0.076 OD450 | 0.078 OD450 | 0.101 OD450 | 0.268 OD450 | 0.904 OD450 | 1.49 OD450 | 1.92 OD450 | 2.1 OD450 | hAb006LH1L1a (antibody, human IgG1, V domains shown, Humanized F3.38.7; VH H1 + VL L1a; expressed as human IgG1) VH: EVQLVQSGAEVKKPGSSVKVSCKASGYTFSDYEIHWVRQAPGQGLEWMGAIDPKTGNTAYNQKFMGRVTITADKSTSTAYMELSSLRSEDTAVYYCTRYFSFAYWGQGTLVTVSS VL: DIVMTQTPLSLPVTPGEPASISCRSSQTFVHSDGNTYLQWYLQKPGQSPQLLIYKVSNRFSGVPDRFSGSGSGTDFTLKISRVEAEDVGVYYCFQGSHVPYTFGQGTKLEIK | 
7 |  |  |  |  |  |  |  | 0.073 OD450 | 0.072 OD450 | 0.076 OD450 | 0.139 OD450 | 0.584 OD450 | 1.37 OD450 | 1.74 OD450 | 1.92 OD450 | hAb006LH2L1a (antibody, human IgG1, V domains shown, Humanized F3.38.7; VH H2 + VL L1a; expressed as human IgG1) VH: EVQLVQSGAEVKKPGSSVKVSCKASGYTFTDYEIHWVRQAPGQGLEWMGAIDPKTGNTAYNQKFMGRVTITADKSTSTAYMELSSLRSEDTAVYYCTRYFSFAYWGQGTLVTVSS VL: DIVMTQTPLSLPVTPGEPASISCRSSQTFVHSDGNTYLQWYLQKPGQSPQLLIYKVSNRFSGVPDRFSGSGSGTDFTLKISRVEAEDVGVYYCFQGSHVPYTFGQGTKLEIK | 
8 |  |  |  |  |  |  |  | 0.076 OD450 | 0.072 OD450 | 0.087 OD450 | 0.207 OD450 | 0.909 OD450 | 1.48 OD450 | 1.83 OD450 | 2.07 OD450 | hAb006LH3L1a (antibody, human IgG1, V domains shown, Humanized F3.38.7; VH H3 + VL L1a; expressed as human IgG1) VH: EVQLVQSGAEVKKPGSSVKVSCKASGYTFTDYEIHWVRQAPGQGLEWMGAIDPKTGNTAYNQKFMGRVTLTADKSTSTAYMELSSLRSEDTAVYYCTRYFSFAYWGQGTLVTVSS VL: DIVMTQTPLSLPVTPGEPASISCRSSQTFVHSDGNTYLQWYLQKPGQSPQLLIYKVSNRFSGVPDRFSGSGSGTDFTLKISRVEAEDVGVYYCFQGSHVPYTFGQGTKLEIK | 
9 |  |  |  |  |  |  |  | 0.087 OD450 | 0.112 OD450 | 0.218 OD450 | 0.634 OD450 | 1.57 OD450 | 2.1 OD450 | 2.2 OD450 | 2.22 OD450 | hAb007LH1L1a (antibody, human IgG1, V domains shown, Humanized F3.81.19; VH H1 + VL L1a; expressed as human IgG1) VH: EVQLVQSGAEVKKPGSSVKVSCKASGYTFSDYEMHWVRQAPGQGLEWMGTIDPETGNTAYNQKFKGRVTITADKSTSTAYMELSSLRSEDTAVYYCTRPYSLTYWGQGTLVTVSS VL: DIVMTQTPLSLPVTPGEPASISCRSSQSFVHSDGDTYLQWYLQKPGQSPQLLIYKVSNRFSGVPDRFSGSGSGTDFTLKISRVEAEDVGVYYCFQGSHVPYTFGQGTKLEIK | 
10 |  |  |  |  |  |  |  | 0.092 OD450 | 0.099 OD450 | 0.173 OD450 | 0.491 OD450 | 1.29 OD450 | 1.95 OD450 | 2.12 OD450 | 2.09 OD450 | hAb007LH2L1a (antibody, human IgG1, V domains shown, Humanized F3.81.19; VH H2 + VL L1a; expressed as human IgG1) VH: EVQLVQSGAEVKKPGSSVKVSCKASGYTFTDYEMHWVRQAPGQGLEWMGTIDPETGNTAYNQKFKGRVTITADKSTSTAYMELSSLRSEDTAVYYCTRPYSLTYWGQGTLVTVSS VL: DIVMTQTPLSLPVTPGEPASISCRSSQSFVHSDGDTYLQWYLQKPGQSPQLLIYKVSNRFSGVPDRFSGSGSGTDFTLKISRVEAEDVGVYYCFQGSHVPYTFGQGTKLEIK | 
11 |  |  |  |  |  |  |  | 0.083 OD450 | 0.088 OD450 | 0.14 OD450 | 0.353 OD450 | 1.04 OD450 | 1.78 OD450 | 2.04 OD450 | 2.03 OD450 | hAb007LH3L1a (antibody, human IgG1, V domains shown, Humanized F3.81.19; VH H3 + VL L1a; expressed as human IgG1) VH: EVQLVQSGAEVKKPGSSVKVSCKASGYTFTDYEMHWVRQAPGQGLEWMGTIDPETGNTAYNQKFKGRVTLTADKSTSTAYMELSSLRSEDTAVYYCTRPYSLTYWGQGTLVTVSS VL: DIVMTQTPLSLPVTPGEPASISCRSSQSFVHSDGDTYLQWYLQKPGQSPQLLIYKVSNRFSGVPDRFSGSGSGTDFTLKISRVEAEDVGVYYCFQGSHVPYTFGQGTKLEIK | 
